# Data published in article PMC5801593 (Frontiers in Molecular Biosciences, 2017).
# Assays:
# Settings in all cases: both partners purified
# biotinylated IscS = target: T1, biotinylated IscS (E. coli, UniProt P0A6B7 1-404, biotin (site not stated)); experiment: BLI; biotinylated IscS immobilised on streptavidin biosensors, IscX 0-50 μM; 20 mM HEPES pH 7.5, 150 mM NaCl, 2 mM TCEP, 0.5 mg/mL BSA, 25°C; apparent Kd, 1:1 model; data not shown
# T1 construct: IscS, cysteine desulfurase of E. coli; Same protein as m1, biotinylated to hold it on streptavidin biosensors; also called immobilized IscS; source: E. coli BL21(DE3), purified (Ni-NTA, TEV cleavage, gel filtration), biotinylated
# [1] = target: T2, IscU-IscS complex (immobilized IscS saturated with IscU) (E. coli, UniProt P0A6B7 1-404; P0ACD4 2-128, biotin (site not stated)); experiment: BLI; IscS immobilised and saturated by IscU (10 μM), titrated with IscX 0-60 μM; apparent Kd, 1:1 model
# T2 construct: IscS, cysteine desulfurase of E. coli; as the chain of m7; IscU of E. coli; as the chain of m4; also called IscS saturated by IscU; source: formed on the biosensor from purified E. coli-made proteins: immobilized IscS saturated by IscU (10 μM); copies: 2 +
# [2] = target: T3, cysteine desulfurase IscS (E. coli, UniProt P0A6B7 1-404); experiment: native MS; ESI-MS under non-denaturing conditions; IscS 3 μM in 250 mM ammonium acetate pH 8, IscX at 0-16 IscX/IscS molar ratios, 5 min at room temperature; sequential binding model (DynaFit)
# T3 construct: IscS, cysteine desulfurase of E. coli; Dimer by native MS (observed 91,035 Da, predicted 91,037 Da); An adduct of about +304 Da is put down to beta-mercaptoethanol hetero-disulfides; also called wild-type IscS; source: E. coli BL21(DE3), purified (Ni-NTA, TEV cleavage, gel filtration)
# [3] = target: T3, cysteine desulfurase IscS; experiment: BLI; competition: biotinylated CyaY immobilised on streptavidin biosensors, exposed to 10 μM IscS at IscX 0-60 μM; 20 mM HEPES pH 7.5, 150 mM NaCl, 2 mM TCEP, 0.5 mg/mL BSA, 25°C; apparent Kd from the response reduction, 1:1 model
Binder,Kd (biotinylated IscS),Kd [1],Kd of the first two IscX per IscS dimer (primary site) [2],Kd of the third and fourth IscX per IscS dimer (secondary site) [2],stoichiometry N [2],Kd [3],binding result [3]
"IscX (natural protein, E. coli, UniProt P0C0L9 1-66, looked up, also: mixed disulfide with β-mercaptoethanol on majority of protein, most likely, IscX (YfhJ) of E. coli; Predicted mass 7859 Da, observed 7935 Da; the predicted mass may include some; also called YfhJ; source: E. coli BL21(DE3), purified (Ni-NTA, TEV cleavage, gel filtration)) MGLKWTDSREIGEALYDAYPDLDPKTVRFTDMHQWICDLEDFDDDPQASNEKILEAILLVWLDEAE",8 ± 3 µM,8 ± 2 µM,13.7 ± 0.4 µM,170 ± 10 µM,≤ 4 IscX per IscS dimer,6 ± 2 µM,
"biotinylated CyaY (natural protein, E. coli, UniProt P27838 1-106, looked up, biotin (site not stated), CyaY, frataxin ortholog of E. coli; Same protein as m3, biotinylated to hold it on streptavidin biosensors; also called immobilized CyaY; source: E. coli BL21(DE3), purified (Ni-NTA, TEV cleavage, gel filtration), biotinylated) MNDSEFHRLADQLWLTIEERLDDWDGDSDIDCEINGGVLTITFENGSKIIINRQEPLHQVWLATKQGGYHFDLKGDEWICDRSGETFWDLLEQAATQQAGETVSFR",,,,,,,binds
